± gives the uncertainty stated by the source.
Assay: protein stability index of a GFP-peptide fusion (yeast GPS) (PSI 1-4); higher = more stable; sorted into four equal gates, so the index is relative within each strain
Summary of the method: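 The protein stability index of a peptide was calculated by multiplying its read frequency in each gate by that gate's number and adding the products. The peptides were tiled 17-residue stretches of yeast proteins, fused downstream of GFP on a Cherry-expressing plasmid and carried in yeast as a pooled library. Mid-log cultures in leucine-free medium were sorted into four equal gates by GFP/Cherry ratio, and each gate's plasmids were PCR-amplified and Illumina-sequenced.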

Sequence	protein stability index (pdr5∆)	protein stability index (san1∆)	protein stability index (doa10∆)	protein stability index (ubr1∆)
SSTYYNLDYLFELIELV [NUT1]	2.62 ± 0.17	2.78 ± 0.15	–	–
IPGEEVEETEVPTVPPS [MED4]	2.42 ± 0.11	2.44 ± 0.13	2.66 ± 0.11	2.62 ± 0.059
VDTGLQPQHPHYVSTSK [YLR018C/POM34]	2.77 ± 0.045	2.88 ± 0.05	2.38 ± 0.05	2.9 ± 0.042
PGIMLRQMNLVITLLNN [YCS4]	1.11 ± 0.042	1.14 ± 0.13	1.2 ± 0.06	1.19 ± 0.041
LLDNEIRIFRSELQRLS [RPT5]	–	3.09 ± 0.076	2.4 ± 0.26	3.03 ± 0.21
QKTRVKLLFDHDELDMN [ESC2]	3.36 ± 0.12	3.02 ± 0.076	2.87 ± 0.16	3.12 ± 0.093
NTFQKTVEPVYQMHIKT [FAS1]	1.78 ± 0.046	1.58 ± 0.062	1.68 ± 0.038	1.5 ± 0.059
EKESVEKQHENAVLELG [SMC3]	3.52 ± 0.13	2.9 ± 0.1	3.36 ± 0.2	3.42 ± 0.073
HEDLVNSIESKNLSLQT [COR1]	2.96 ± 0.074	3.09 ± 0.083	2.96 ± 0.087	2.97 ± 0.073
HCGALNGVVKKAAAGAG [RPO31]	2.38 ± 0.19	–	1.35 ± 0.27	–
ETVPDNVKTSVSQLYRI [RPO31]	3.16 ± 0.13	3.21 ± 0.078	2.92 ± 0.1	3.2 ± 0.069
GYVSSLVEPSKVGQFDQ [FAS1]	1.94 ± 0.082	1.72 ± 0.12	1.52 ± 0.082	1.91 ± 0.078
DTKNSKSESPSEVLVDT [ISW2]	3.12 ± 0.07	2.97 ± 0.082	3.11 ± 0.082	3.27 ± 0.063
TKISTLAVKVHGGSRYA [QCR2]	1.64 ± 0.21	1.18 ± 0.29	1.34 ± 0.12	1.41 ± 0.17
RAIYSYLSGAIPNQEVL [YDL116W/NUP84]	2.58 ± 0.079	2.5 ± 0.089	2.4 ± 0.066	2.76 ± 0.055
LCSMLQEASQVTFIFGE [MED11]	2.74 ± 0.048	2.61 ± 0.055	2.06 ± 0.053	2.56 ± 0.037
SRDLWCFSINDDPVPTP [SSN2]	2.21 ± 0.088	2.94 ± 0.081	2.21 ± 0.085	2.63 ± 0.1
ELLEERFQDSNPYVRTK [YCS4]	1.76 ± 0.11	2.82 ± 0.076	1.48 ± 0.037	2.8 ± 0.096
RALFRQLKRWYWQFNGV [RMP1]	1.24 ± 0.12	1.19 ± 0.18	2.29 ± 0.18	1.34 ± 0.11
VVFAVEKLITSKLLVPQ [PRE10]	2.81 ± 0.18	2.33 ± 0.13	2.03 ± 0.14	2.66 ± 0.05
RAGMTHEDEKLIPTIFR [PRP8]	3.28 ± 0.076	3.15 ± 0.049	3.19 ± 0.085	3.19 ± 0.05
LHGLTPTAKDVEVIKQL [GAL11]	2.64 ± 0.13	–	3.08 ± 0.078	2.26 ± 0.078
FPPPSVAARAEILRIHS [RPT6]	2.5 ± 0.085	1.54 ± 0.12	1.72 ± 0.074	1.74 ± 0.046
NCVNDVLEFCKDYEAKT [POP1]	3.45 ± 0.083	3.14 ± 0.072	3.2 ± 0.075	3.32 ± 0.051
YQSSVQEPFLNSSNYAE [PRP8]	2.96 ± 0.052	2.78 ± 0.053	2.99 ± 0.055	2.9 ± 0.043
SIVEECDARFDEKTIEE [RPC17]	3.05 ± 0.088	3.09 ± 0.11	2.98 ± 0.14	2.68 ± 0.21

Sequence	protein stability index (pdr5∆)	protein stability index (san1∆)	protein stability index (doa10∆)	protein stability index (ubr1∆)
IIGHNPDENKTRVRLPS [RPL2A]	3.09 ± 0.077	2.93 ± 0.046	2.93 ± 0.074	3 ± 0.048
LSDRANKNQDAFEAELS [ARP9]	3.13 ± 0.08	3.04 ± 0.07	3.28 ± 0.072	3.31 ± 0.057
ADVKGVCTEAGMYALRE [RPT6]	2.23 ± 0.094	1.97 ± 0.12	1.82 ± 0.08	1.27 ± 0.27
EQQLFEIFAFGNIKDLP [CSN9]	2.97 ± 0.06	2.96 ± 0.035	2.88 ± 0.076	2.86 ± 0.035
PKLKEGALHFVQQSEKL [YIL149C/MLP2]	2.33 ± 0.082	2.31 ± 0.066	2.58 ± 0.064	2.88 ± 0.05
VQISNIPDIGDLPDTEG [PRP8]	3.29 ± 0.059	3.2 ± 0.049	3.24 ± 0.07	3.23 ± 0.043
RNSYPASFYSVNTEKKT [RPN3]	3.06 ± 0.13	2.82 ± 0.068	3.4 ± 0.29	3.46 ± 0.14
MTVKLESITYQKIMILQ [RGR1]	1.73 ± 0.068	1.6 ± 0.095	2.16 ± 0.071	2.56 ± 0.076
GMKVKADRDESSPYAAM [RPS14B]	1.09 ± 0.12	1.14 ± 0.22	1.32 ± 0.067	1.2 ± 0.089
SASFSLKNGDKPHMLKF [RPL6A]	1.84 ± 0.055	2.89 ± 0.06	2.81 ± 0.083	3.13 ± 0.033
VPGPGTKLIQYEHNGRT [CSL4]	3.06 ± 0.058	3.25 ± 0.066	3 ± 0.092	3.09 ± 0.056
STNESNKSISDEITEDM [SSN2]	2.75 ± 0.057	2.8 ± 0.05	2.5 ± 0.05	2.98 ± 0.045
IKLGSTAIGIATKEGVV [PUP2]	1.63 ± 0.18	1.34 ± 0.26	1.54 ± 0.11	1.32 ± 0.11
PEHLRKIINTHSDMASK [PRP8]	2.04 ± 0.051	2.15 ± 0.097	2.01 ± 0.053	2.37 ± 0.039
ANDHDESIDVDMDAESN [SMC3]	2.37 ± 0.28	–	–	1.81 ± 0.25
TEAAFTKLDQVWGSETV [RPL4A]	1.87 ± 0.11	3.07 ± 0.067	1.84 ± 0.18	2.15 ± 0.14
QLGEWAGLGKIDREGNA [RPS12]	–	3.4 ± 0.26	3.67 ± 0.28	3.35 ± 0.14
AKLWFYIYLSHETLARS [RPN3]	1.4 ± 0.086	1.68 ± 0.15	1.69 ± 0.088	1.65 ± 0.084
YTDELEEDVYLDPLARV [FAS2]	3.32 ± 0.1	3.54 ± 0.07	3.33 ± 0.095	3.44 ± 0.053
KYYLEESNVNDSDMLTK [NUT1]	3.15 ± 0.082	3.31 ± 0.07	3.13 ± 0.097	3.36 ± 0.086
AITNTGPREDTTRVGGG [RPS5]	3.05 ± 0.073	2.9 ± 0.07	3.04 ± 0.074	3.18 ± 0.054
KVGYTLPSHIISTSDVT [RPL4A]	2.69 ± 0.043	2.58 ± 0.039	2.49 ± 0.048	2.5 ± 0.035
VLQEYRLTKQAFDWVLS [RPO21]	2.48 ± 0.069	2.89 ± 0.073	2.59 ± 0.068	2.78 ± 0.046
TGAGAFGTGQSTFGFNN [YJL041W/NSP1]	2.57 ± 0.064	3.02 ± 0.058	2.72 ± 0.055	2.85 ± 0.046
SLISVLEASLNSITKDN [YJL039C/NUP192]	2.24 ± 0.038	2.31 ± 0.048	2.46 ± 0.052	2.09 ± 0.026

Source: the supplement of paper PMC9732359
